Substrate: CC(C)CCC[C@@H](C)[C@H]1CC[C@H]2[C@@H]3CC=C4C[C@@H](O)CC[C@]4(C)[C@H]3CC[C@]12C
Assay: purified protein
Format: biochemical, Streptomyces sp. SA-COO
Details: 0-1 mM cholesterol, 0.1 M potassium phosphate pH 7, 25 °C

B1: ChOA (cholesterol oxidase from Streptomyces sp. SA-COO) (Streptomyces sp. SA-COO) (protein)
chain: DNGGYVPAVVIGTGYGAAVSALRLGEAGVQTLMLEMGQLWNQPGPDGNIFCGMLNPDKRSSWFKNRTEAPLGSFLWLDVVNRNIDPYAGVLDRVNYDQMSVYVGRGVGGGSLVNGGMAVEPKRSYFEEILPRVDSSEMYDRYFPRANSMLRVNHIDTKWFEDTEWYKFARVSREQAGKAGLGTVFVPNVYDFGYMQREAAGEVPKSALATEVIYGNNHGKQSLDKTYLAAALGTGKVTIQTLHQVKTIRQTKDGGYALTVEQKDTDGKLLATKEISCRYLFLGAGSLGSTELLVRARDTGTLPNLNSEVGAGWGPNGNIMTARANHMWNPTGAHQSSIPALGIDAWDNSDSSVFAEIAPMPAGLETWVSLYLAITKNPQRGTFVYDAATDRAKLNWTRDQNAPAVNAAKALFDRINKANGTIYRYDLFGTQLKAFADDFCYHPLGGCVLGKATDDYGRVAGYKNLYVTDGSLIPGSVGVNPFVTITALAERNVERIIKQDVTAS
- Km: 13 µM
